Laboratory results: patent US10301203B2, “Chloroperoxidase-catalyzed degradation of pharmaceutical pollutants in wastewater” (THE FLORIDA INTERNATIONAL UNIVERSITY BOARD OF TRUSTEES, priority 2017, dated 2019)

Substrate: NC(=O)N1c2ccccc2C=Cc2ccccc21
Test: CPO-catalyzed degradation of carbamazepine, kinetic parameters (UV monitoring at 285 nm, CBZ concentration varied)
Format: biochemical, Caldariomyces fumago
Details: other: CBZ as substrate, 0.02 to 0.11 mM, CPO isolated from C. fumago (5 nM), 100 mM KH2PO4 buffer, 20 mM KCl, pH 2.75, H2O2 0.35 mM or 0.07 mM, absorbance at 285 nm, 0.1 to 0.2 mi
Excerpt: Chloroperoxidase (CPO) is a heme-containing glycoprotein secreted by the fungus Caldariomyces fumago.
The isolation of CPO proposed in this study was a modification of the protocol reported by Morris and Hager (1966), using acetone instead of ethanol as the fractionation solvent. CPO with Rz=1.45 was applied in all reactions (Rz is the purity standard, defined as A398/A280=1.44 for a pure enzyme). All solvents were HPLC grade or Optima® LC/MS grade, purchased from Thermo Fisher Scientific Inc. (Waltham, Mass., USA). Water was produced using a Milli-Q® Biocel™ Ultra-Pure water purification system equipped with 0.22 μM membrane filter cartridge (EMD Millipore, Billerica, Mass., USA), and an organic removal cartridge (Evoqua Water Technologies, Lowell, Mass., USA).
The rate was calculated by monitoring absorbance at 285 nm from 0.1 to 0.2 min. The reaction was carried out in 100 mM KH2PO4 buffer with 20 mM KCl at pH 2.75, with the concentration of CBZ varying from 0.02 to 0.11 mM. UV monitoring was started immediately after adding 0.35 mM H2O2.
All experiments were triplicated and data reported were mean values of three independent measurements with standard deviation.
1 min. after addition of 5 nM CPO, the 285 nm absorption decreased, and stopped […] at 4 min. The 285 nm wavelength was used to measure kinetic parameters of CBZ degradation catalyzed by CPO.

B1: chloroperoxidase (CPO) (Leptoxyphium fumago) (protein)
chain: QEPGSGIGYPYDNNTLPYVAPGPTDSRAPCPALNALANHGYIPHDGRAISRETLQNAFLNHMGIANSVIELALTNAFVVCEYVTGSDCGDSLVNLTLLAEPHAFEHDHSFSRKDYKQGVANSNDFIDNRNFDAETFQTSLDVVAGKTHFDYADMNEIRLQRESLSNELDFPGWFTESKPIQNVESGFIFALVSDFNLPDNDENPLVRIDWWKYWFTNESFPYHLGWHPPSPAREIEFVTSASSAVLAASVTSTPSSLPSGAIGPGAEAVPLSFASTMTPFLLATNAPYYAQDPTLGPND
notes: heme-containing glycoprotein secreted by the fungus Caldariomyces fumago; made in house; host or cells: Caldariomyces fumago (natural producer, not recombinant)
B1 was tested. Which Km did it give?
The Km was 73.35 µM.
